Source: patent US20210284724A1 (I MAB BIOPHARMA US, published 2021)
Positions count from the first letter of the chain named. One block for each binder: values may come before it.

Columns and labels:
cynomolgus CXCL13 = target: T1, cynomolgus CXCL13 (cynomolgus, UniProt H6WS58 23-109); test: ELISA, coated antigen
T1 construct: also called cynoCXCL13; Cyno CXCL13
T1 sequence: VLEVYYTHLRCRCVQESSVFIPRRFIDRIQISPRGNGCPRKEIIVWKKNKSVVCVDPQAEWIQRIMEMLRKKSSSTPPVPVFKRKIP

mouse CXCL13 = target: T2, mouse CXCL13 (mouse, UniProt O55038 22-109); test: ELISA, coated antigen
T2 construct: also called rmCXCL13
T2 sequence (looked up): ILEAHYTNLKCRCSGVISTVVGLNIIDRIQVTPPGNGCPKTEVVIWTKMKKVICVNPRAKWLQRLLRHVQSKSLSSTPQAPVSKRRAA

human CXCL13 [1] = target: T3, human CXCL13 (human, UniProt O43927 23-109); test: ELISA, coated antigen
T3 construct: also called huCXCL13; rhCXCL13
T3 sequence (looked up): T1 sequence with H8S, S32L, V52I, I65M, M68V, K72R, P77L

human CXCL13 [2] = target: T3, human CXCL13; test: cell-based blocking ELISA, CXCL13 to CHO-K1-CXCR5
Description: Splenocytes were electro-fused with mouse myeloma cell line SP2/0 cells and plated into 96-well culture plate. The hybridoma supernatants were tested by ELISA binding assay for anti-human CXCL13 binders. Supernatants of positive binding clones were screened for function in blocking of human CXCL13 binding to its […] CXCR5 by Cell-based receptor blocking ELISA assay. Briefly, 5×10⁴ CHO-K1-CXCR5 cells were plated in 96-well plate with 100 μl of culture medium and incubated at 37° C. overnight. Cells were fixed with 100 μl of 2% PFA at RT for 1 hr after washing with PBS for 1 time. Blocking was done with 1% BSA in PBST for 1 hr at RT. Supernatants were diluted with PBS and pre-incubated with equal volume of 0.3 μg/ml human CXCL13 for 30 min at RT. 100 μl of antibody-antigen complex was then transferred into each cell wells for 30 min at RT. The samples were washed with 1×PBST for 3 times and 100 μl of 3 μg/ml of human Mab5261 antibody was add into each well to capture human CXCL13 and anti-human Fc-HRP was used to indirectly detect human CXCL13 when it bound to CHO-K1-CXCR5 cells. […] Reading was done at […].
Those antibodies were purified from hybridoma supernatants by binding with Protein G column and characterized by ELISA binding assays and cell-based blocking ELISA assays. […] 11/20 clones bound to both human CXCL13 and cynomolgus CXCL13 appeared to completely block human CXCL13 to human CXCR5. 11 blockers bound to both huCXCL13 and cynoCXCL13 were produced as chimeric human IgG1 antibodies for further Characterization.

B1: 348B10B1 (antibody, V domains shown)
VH: EVQLQQSGPELVKPGASVKISCKTSGYTFTEYIMHWVKQSHGRSLEWIGGINPDNGDTTYNQKFKGKATLTVDKSSTTAYMELRSLTSEDSAVYYCAGGVLDYWGQGTSVTVSS
VL: not shown
notes: Hybridoma mAb
EC50 (cynomolgus CXCL13): 0.0166 µg/mL
binding result (mouse CXCL13): no binding
EC50 (human CXCL13 [1]): 0.0124 µg/mL

B4: 1H3A11 (antibody, V domains shown)
VH: EVQLVESGGGLVKPGGSLKLSCAASGFTFSSYAMSWVRQTPEKRLEWVATISDGGSDTYYPDNVKGRFTISRDNAKNNLYLQMSHLKSEDTAMYYCARDYYGSSYEDYAMDYWGQGTSVTVSS
VL: DIQMTQSPSSLSASLGGKVTITCKASQDINKYITWYQHKPGKGPRLLIHYTSTLQPGIPSRFSGSGSGRDYSFSISNLEPEDIATYYCLQYDNLYTFGGGTKLEIK
notes: Hybridoma mAb
IC50 (human CXCL13 [2]): 10.1 µg/mL
EC50 (cynomolgus CXCL13): 0.145 µg/mL
binding result (mouse CXCL13): no binding
EC50 (human CXCL13 [1]): 0.0633 µg/mL

B5: 368D6D10 (antibody, V domains shown)
VH: DVQLQESGPGLVKPSQSLSLTCTVTGYSITSDYAWNWIRQFPGNKLEWMGYISYSGSTSYNPSLKSRISITRDTSKNQFFLQLNSVTTEDTATYYCVAGHFDYWGQGTTLTVSS
VL: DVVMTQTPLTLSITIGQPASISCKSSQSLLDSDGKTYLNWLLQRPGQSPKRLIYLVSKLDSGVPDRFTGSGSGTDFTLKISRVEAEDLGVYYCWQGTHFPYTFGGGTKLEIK
notes: Hybridoma mAb
EC50 (cynomolgus CXCL13): 0.14 µg/mL
binding result (mouse CXCL13): no binding
EC50 (human CXCL13 [1]): 0.0864 µg/mL

B6: 397C3B3 (antibody, V domains shown)
VH: B5 VH with T71N
VL: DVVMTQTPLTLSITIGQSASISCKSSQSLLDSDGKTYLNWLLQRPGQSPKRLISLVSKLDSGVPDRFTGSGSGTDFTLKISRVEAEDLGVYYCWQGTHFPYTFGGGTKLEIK
notes: Hybridoma mAb
EC50 (cynomolgus CXCL13): 0.401 µg/mL
binding result (mouse CXCL13): no binding
EC50 (human CXCL13 [1]): 0.344 µg/mL

B7: 348E12F12 (antibody, V domains shown)
VH: B5 VH with S57D
VL: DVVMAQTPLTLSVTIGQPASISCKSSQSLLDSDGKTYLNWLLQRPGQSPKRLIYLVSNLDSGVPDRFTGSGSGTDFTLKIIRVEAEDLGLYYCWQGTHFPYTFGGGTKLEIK
notes: Hybridoma mAb
EC50 (cynomolgus CXCL13): 0.0765 µg/mL
binding result (mouse CXCL13): no binding
EC50 (human CXCL13 [1]): 0.0636 µg/mL

B10: 353F9C4 (antibody, V domains shown)
VH: B5 VH with N36S, S53T, G56D, T88A, V97A, T109I
VL: not shown
notes: Hybridoma mAb
EC50 (cynomolgus CXCL13): 0.172 µg/mL
binding result (mouse CXCL13): no binding
EC50 (human CXCL13 [1]): 0.135 µg/mL

The remaining lines, values ahead:

EC50 (cynomolgus CXCL13): 0.0178 µg/mL
binding result (mouse CXCL13): no binding
EC50 (human CXCL13 [1]): 0.00664 µg/mL
B2: 360A3D4E3 (antibody, V domains shown)
VH: B1 VH with G42E, N52H, K65T
VL: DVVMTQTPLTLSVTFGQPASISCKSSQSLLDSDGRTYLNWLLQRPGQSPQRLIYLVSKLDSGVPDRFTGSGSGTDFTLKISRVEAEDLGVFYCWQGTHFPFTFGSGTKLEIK
notes: Hybridoma mAb

EC50 (cynomolgus CXCL13): 0.0319 µg/mL
binding result (mouse CXCL13): no binding
EC50 (human CXCL13 [1]): 0.0388 µg/mL
B3: 339H3E2 (antibody, V domains shown)
VH: B1 VH with D54N, D57G, T77S, L101M
VL: not shown
notes: Hybridoma mAb

EC50 (cynomolgus CXCL13): 0.154 µg/mL
binding result (mouse CXCL13): no binding
EC50 (human CXCL13 [1]): 0.0943 µg/mL
B8: 355A1F6 (antibody, V domains shown)
VH: B5 VH with N36S, G56D, T88A, V97A, T109I
VL: not shown
notes: Hybridoma mAb

EC50 (cynomolgus CXCL13): 0.0557 µg/mL
binding result (mouse CXCL13): no binding
EC50 (human CXCL13 [1]): 0.0668 µg/mL
B9: 367F1C2 (antibody, V domains shown)
VH: B5 VH with Q40H, S55T, T58S, T88S, Q106P
VL: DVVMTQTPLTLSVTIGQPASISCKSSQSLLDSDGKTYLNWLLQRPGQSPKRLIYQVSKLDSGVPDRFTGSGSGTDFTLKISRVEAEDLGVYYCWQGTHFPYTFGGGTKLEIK
notes: Hybridoma mAb
